Experiment [1] has as its target T1, synthesized A beta1-42 (UniProt P05067 672-713).
T1 construct: domain: A beta1-42; spotted in the dot blot as the second of the two types of oligomers; also called A beta42 oligomer
The experiment is described as follows: dot blot: peptide spotted on nitrocellulose (0.1 micro g/dot), hybridoma culture supernatant, HRP anti-mouse IgG, ECL. The protocol: Dot blot analysis was carried out for hybridomas that gave positive result for primary screening. […] The membrane was blocked with Tris Buffer containing 5% low-fat milk and 0.05% Tween-20, and reacted with hybridoma culture supernatants and detected with chemiluminescence kit (ECL) after reacting with HRP-conjugated anti-mouse IgG antibody.

For experiment [2], the target named is T2, A beta oligomer prepared from synthetic A beta1-40 (HCl form), 0.1 mg/ml in PBS, incubated at 37 degrees C … (UniProt P05067 672-711).
T2 construct: domain: A beta1-40; non-fibrous assembly of A beta1-40; also called A beta1-40 oligomer; A beta40 oligomer
Kind of experiment: SPR, Biacore 3000, A beta1-40 oligomer on CM5 chip, antibody as analyte at five concentrations. The protocol:
The analysis was carried out by Surface Plasmon Resonance (SPR) using Biacore 3000 (GE Healthcare Sciences).
Background: SPR reads the build-up and loss of mass on a sensor chip optically.

Experimental findings from patent US20120082667A1 (IMMUNAS PHARMA, published 2012) are described below.

B1: AL-206 antibody (antibody, IgG2b, V domains shown)
VH: DVQLQESGPGLVKPSQSLSLACTVTGYSITSDYAWNWIRQFPGNKLEWLGYISYSGTTRYNPSLKSRISITRDTSKNQFFLQLNSVTTEDTATYYCAIYGSSYYWYFDVWGAGTTVTVSS
VL: QIVLTQSPAIMSASLGERVTMTCTASSSVSSSYLHWYQQKPGSSPKLWIYSTSNLASGVPARFSGSGSGTSYSLTISSMEAEDAATYYCHQYHRSPPTFGAGTKLELK
B1: the binding result in experiment [1] is “binds”.

B2: AL-208 antibody (antibody, IgG2b, V domains shown)
VH: QVQLQQPGAELVKPGASVKLSCKASGYTFTSYWMHWVKQRPGQGLEWIGEINPSNGRTNYNEKFKSKATLTVDKSSSTAYMQLSSLTSEDSAVYYCARQGYRHGVFAYWGQGTLVTVSA
VL: QIVLTQSPAIMSASLGERVTMTCTASSSVSSSYLHWYQQKPGSSPKLWIYSTSNLASGVPARFSGSGSGTSYSLTISSMEAEDAATYYCHQYHRSPPTFGAGTKLELK
Consider B2, for which the binding result in experiment [1] is “binds”.

B3: AL-207 antibody (antibody, IgG2b, V domains shown)
VH: QVTLKESGPGILKPSQTLSLTCSFSGFSLSTSGMGVGWIRQPSGKGLEWLAHIWWDDDEYYNPSLKSQLTISKDTTRNQVFLKITSVDTADTATYYCARRAIHYYGYDAMDYWGQGTSVTVSS
VL: QIVLTQSPAIMSASLGERVTMTCTASSSVSSSYLHWYQQKPGSSPKLWIYSTSNLASGVPARFSGSGSGTSYSLTISSMEAEDAATYYCHQYHRSPPTFGAGTKLELK
For the molecule B3, the binding result in experiment [1] is listed as “binds”.

B4: AL-224 antibody (antibody, IgG2a, V domains shown)
VH: DVQLVESGGGLVQPGGSRKLSCAASGFTFSSFGMHWVRQAPEKGLEWVAYISSGSSTIYYADTVKGRFTISRDNPKNTLFLQMTSLRSEDTAMYYCARYGNYAMDYWGQGTSVTVSS
VL: DVLMTQTPLSLPVSLGDQASISCRSSQSIVHSNGNTYLEWYLQKPGQSPKLLIYKVSNRFSGVPDRFSGSGSGTDFTLKIGRVEAEDLGVYYCFQGSHVPPTFGGGTELEIK
For orientation: Kd means a measure of binding affinity in units of concentration. For orientation: koff means the first-order rate constant of dissociation. Read a high koff as a short-lived complex. By kon is commonly meant the rate constant with which the complex forms. High values mean fast association, low ones slow association. In experiment [2], B4 had a Kd of 544 nM, a koff of 0.155 s⁻¹ and a kon of 285000 M⁻¹ s⁻¹.

B5: AL-202 antibody (antibody, IgG2a, V domains shown)
VH: EVQLVESGGDLVKPGGSLKLSCAASGFTFSSYGMSWVRQTPDKRLEWVATISSGGSYTYYPDSVKGRFTISRDNAKNTLYLQMSSLKSEDTAMYYCARPLYYRHGVFAYWGQGTLVTVSA
VL: DVQITQSPSYLAASPGETITINCRASKSISKYLAWYQEKPGKTNKLLIYSGSTLQSGIPSRFSGSGSGTDFTLTISSLEPEDFAMYYCQQHNEYPWTFGGGTKLEIK
Take B5: the binding result in experiment [1] is given as “binds”.

B6: AL-211 antibody (antibody, IgG2b, V domains shown)
VH: QVTLKESGPGILKPSQTLSLTCSFSGFSLSTSGMGVGWIRQPSGKGLEWLAHIWWDDDKYYNPSLKSQLTISKDTSRNQVFLKITSVDTADTATYYCARRSLSRDYFDYWGQGTTLTVSS
VL: DVVMTQTPLSLPVSLGDQASISCRSSQSLVHSNGNTYLHWYLQKPGQSPKLLIYKVSNRFSGVPDRFSGSGSGTDFTLKISRVEAEDLGVYFCSQSTHVPLTFGAGTKLELK
Turning to B6, the binding result in experiment [1] is given as “binds”.

B7: AL-217 antibody (antibody, IgG1, V domains shown)
VH: QVTLKESGPGILQPSQTLSLTCSFSGFSLSTSGMGVSWIRQPSGKGLEWLAHIYWDDDKRYNPSLKSRLTISKDTSSNQVFLKITSVDTADTATYYCARRGPSYYRYRDYFDYWGQGTTLTVSS
VL: DVLMTQTPLSLPVSLGDQASISCRSSQSIVHSNGNTYLEWYLQKPGQSPKLLIYKVSNRFSGVPDRFSGSGSGTDFTLKISRVEAEDLGVYYCFQGSHVPLTFGAGTKLELK
As to B7, in experiment [2], the dissociation constant Kd was determined as 6.44 nM, the dissociation rate constant (koff) was 0.00123 s⁻¹ and the kon was 191000 M⁻¹ s⁻¹.

B8: AL-226 antibody (antibody, IgG2b, V domains shown)
VH: not shown
VL: DVVMTQTPLSLPVSLGDQASISCRSSQSLVHSNGNTYLHWYLQKPGQSPKLLIYKVSNRFSGVPDRFSGSGSGTDFTLKISRVEAEDLGVYFCSQSTHVPLTFGAGTKLELK
Turning to B8, the binding result in experiment [1] is “binds”.

B9: AL-212 antibody (antibody, IgG2b, V domains shown)
VH: QVTLKESGPGILKPSQTLSLTCSFSGFSLSTSGMGVGWIRQPSGKGLEWLAHIWWDDDKYYNPSLKSQLTISKDTSRNQVFLKITSVDTADTATYYCAPSTMITTFAYWGQGTLVTVSA
VL: DVVMTQTPLSLPVSLGDQASISCRSSQSLVHSNGNTYLHWYLQKPGQSPKLLIYKVSNRFSGVPDRFSGSGSGTDFTLKISRVEAEDLGVYFCSQSTHVPLTFGAGTKLELK
Take B9: the binding result in experiment [1] is recorded as “binds”.

B10: AL-216 antibody (antibody, IgG2b, V domains shown)
VH: QVQLQQPGAELVKPGASVKLSCKASGYTFTSYWMHWVKQRPGQGLEWIGEINPSNGRTNYNEKFKSKATLTVDKSSSTAYMQLSSLTSEDSAVYYCAREHYYGYGAYWGQGTLVTVSA
VL: DVLMTQTPLSLPVSLGDQASISCRSSQSIVHSNGNTYLEWYLQKPGQSPKLLIYKVSNRFSGVPDRFSGSGSGTDFTLKISRVEAEDLGVYYCFQGSHVPLTFGAGTKLELK
Regarding B10, the binding result in experiment [1] is recorded as “binds”.

B11: AL-227 antibody (antibody, IgG2a, V domains shown)
VH: not shown
VL: DVVMTQTPLSLPVSLGDQASISCRSSQSLVHSNGNTYLHWYLQKPGQSPKLLIYKVSNRFSGVPDRFSGSGSGTDFTLKISRVEAEDLGVYFCSQSTHVPLTFGAGTKLELK
Turning to B11, the binding result in experiment [1] is recorded as “binds”.

B12: AL-228 antibody (antibody, IgG2a, V domains shown)
VH: QVTLKESGPGILKPSQTLSLTCSFSGFSLSTSGMGVGWIRQPSGKGLEWLAHIWWDDDKYYNPSLKSRLTISKDTSRNQVFLKITSVDTADTATYYCTRRALLRLQGDYFDYWGQGTTLTVSS
VL: DVLMTQTPLSLPVSLGDQASISCRSSQSIVHSNGNTYLEWYLQKPGQSPKLLIYKVSNRFSGVPDRFSGSGSGTDFTLKISRVEAEDLGVYYCFQGSHVPLTFGAGTKLELK
Turning to B12, in experiment [1], the binding result is recorded as “binds”.

B13: AL-213 antibody (antibody, IgG2b, V domains shown)
VH: QVQLKQSGPGLVQPSQSLSITCTVSGFSLTSYGVHWVRQSPGKGLEWLGVIWRGGSTDYNAAFMSRLSITKDNSKSQVFFKMNSLQADDTAIYYCANNRYERGGYYAMDYWGQGTSVTVSS
VL: DVLMTQTPLSLPVSLGDQASISCRSSQSIVHSNGNTYLEWYLHKPGQSPKLLIYKVSNRFSGVPDRFSGSGSGTDFTLKISRVEAEDLGVYYCFQGSHVPLTFGAGTKLELK
As to B13, the binding result in experiment [1] is on record as “binds”.

B14: AL-220 antibody (antibody, IgG2b, V domains shown)
VH: QVQLQQPGAELVKPGASVKLSCKASGYTFTSYWMHWVKQRPGQGLEWIGEINPSNGRTNYNEKFKSKATLTVDKSSSTAYMQLSSLTSEDSAVYYCAREHYYGYGAYWGQGTLVTVSA
VL: DVLMTQTPLSLPVSLGDQASISCRSSQSIVHSNGNTYLEWYLQKPGQSPKLLIYKVSNRFSGVPDRFSGSGSGTDFTLKISRVEAEDLGVYYCFQGSHVPYTFGGGTKLEIK
Consider B14, for which the binding result in experiment [1] was “binds”.

B15: AL-214 antibody (antibody, IgG2b, V domains shown)
VH: QVQLKQSGPGLVQPSQSLSITCTVSGFSLTSYGVHWVRQSPGKGLEWLGVIWRGGSTDYNAAFMSRLSITKDNSKSQVFFKMNSLQADDTAIYYCANNRYERGGYYAMDYWGQGTSVTVSS
VL: DVLMTQTPLSLPVSLGDQASISCRSSQSIVHSNGNTYLEWYLQKPGQSPKLLIYKVSNRFSGVPDRFSGSGSGTDFTLKISRVEAEDLGVYYCFQGSHVPLTFGAGTKLELK
Regarding B15, the binding result in experiment [1] is recorded as “binds”.
